Experimental data taken from IntAct's records for PubMed 20562859.

B1: Gamma-aminobutyric acid receptor-associated protein (Homo sapiens), O95166 (parent)
chain: MKFVYKEEHPFEKRRSEGEKIRKKYPDRVPVIVEKAPKARIGDLDKKKYLVPSDLTVGQFYFLIRKRIHLRAEDALFFFVNNVIPPTSATMGQLYQEHHEEDFFLYIAYSDESVYGL
partner: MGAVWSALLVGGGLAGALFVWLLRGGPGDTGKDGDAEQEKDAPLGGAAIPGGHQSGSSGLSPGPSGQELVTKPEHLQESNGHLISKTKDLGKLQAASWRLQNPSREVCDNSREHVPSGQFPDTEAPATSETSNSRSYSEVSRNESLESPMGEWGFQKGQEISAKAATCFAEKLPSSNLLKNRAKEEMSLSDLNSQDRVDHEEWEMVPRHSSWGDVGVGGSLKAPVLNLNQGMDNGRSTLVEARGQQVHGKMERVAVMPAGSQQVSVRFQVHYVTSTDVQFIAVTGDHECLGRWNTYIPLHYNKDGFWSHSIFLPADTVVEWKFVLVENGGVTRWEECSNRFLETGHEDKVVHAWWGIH
B2: Gamma-aminobutyric acid receptor-associated protein (Homo sapiens), O95166 (parent)
chain: B1 chain
partner: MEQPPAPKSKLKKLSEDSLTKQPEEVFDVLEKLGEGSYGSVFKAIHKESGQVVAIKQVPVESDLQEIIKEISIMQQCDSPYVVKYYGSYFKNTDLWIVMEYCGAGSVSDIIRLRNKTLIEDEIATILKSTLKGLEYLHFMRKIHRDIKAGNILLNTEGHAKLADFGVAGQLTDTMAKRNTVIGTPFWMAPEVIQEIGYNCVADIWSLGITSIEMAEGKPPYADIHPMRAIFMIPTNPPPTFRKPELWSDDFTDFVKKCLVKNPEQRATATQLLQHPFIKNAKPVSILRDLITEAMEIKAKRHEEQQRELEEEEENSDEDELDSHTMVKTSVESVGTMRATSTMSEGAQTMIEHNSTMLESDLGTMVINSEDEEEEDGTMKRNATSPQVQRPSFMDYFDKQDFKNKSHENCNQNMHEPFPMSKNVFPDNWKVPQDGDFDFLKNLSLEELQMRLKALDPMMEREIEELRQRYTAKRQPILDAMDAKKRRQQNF
B3: Gamma-aminobutyric acid receptor-associated protein (Homo sapiens), O95166 (parent)
chain: B1 chain
partner: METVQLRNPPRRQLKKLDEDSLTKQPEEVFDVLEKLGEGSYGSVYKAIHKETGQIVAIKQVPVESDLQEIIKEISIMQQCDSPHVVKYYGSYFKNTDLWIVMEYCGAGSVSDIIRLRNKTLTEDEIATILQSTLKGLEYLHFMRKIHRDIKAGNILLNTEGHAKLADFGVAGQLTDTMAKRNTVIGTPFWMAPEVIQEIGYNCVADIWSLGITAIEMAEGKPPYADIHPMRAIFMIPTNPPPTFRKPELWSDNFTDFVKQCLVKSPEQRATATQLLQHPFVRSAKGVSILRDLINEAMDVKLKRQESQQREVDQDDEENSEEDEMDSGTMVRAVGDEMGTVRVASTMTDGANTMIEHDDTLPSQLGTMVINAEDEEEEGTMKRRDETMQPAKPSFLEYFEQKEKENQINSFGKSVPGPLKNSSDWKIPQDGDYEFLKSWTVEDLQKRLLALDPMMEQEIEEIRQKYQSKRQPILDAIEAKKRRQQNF
B4: Gamma-aminobutyric acid receptor-associated protein (Homo sapiens), O95166 (parent)
chain: B1 chain
partner: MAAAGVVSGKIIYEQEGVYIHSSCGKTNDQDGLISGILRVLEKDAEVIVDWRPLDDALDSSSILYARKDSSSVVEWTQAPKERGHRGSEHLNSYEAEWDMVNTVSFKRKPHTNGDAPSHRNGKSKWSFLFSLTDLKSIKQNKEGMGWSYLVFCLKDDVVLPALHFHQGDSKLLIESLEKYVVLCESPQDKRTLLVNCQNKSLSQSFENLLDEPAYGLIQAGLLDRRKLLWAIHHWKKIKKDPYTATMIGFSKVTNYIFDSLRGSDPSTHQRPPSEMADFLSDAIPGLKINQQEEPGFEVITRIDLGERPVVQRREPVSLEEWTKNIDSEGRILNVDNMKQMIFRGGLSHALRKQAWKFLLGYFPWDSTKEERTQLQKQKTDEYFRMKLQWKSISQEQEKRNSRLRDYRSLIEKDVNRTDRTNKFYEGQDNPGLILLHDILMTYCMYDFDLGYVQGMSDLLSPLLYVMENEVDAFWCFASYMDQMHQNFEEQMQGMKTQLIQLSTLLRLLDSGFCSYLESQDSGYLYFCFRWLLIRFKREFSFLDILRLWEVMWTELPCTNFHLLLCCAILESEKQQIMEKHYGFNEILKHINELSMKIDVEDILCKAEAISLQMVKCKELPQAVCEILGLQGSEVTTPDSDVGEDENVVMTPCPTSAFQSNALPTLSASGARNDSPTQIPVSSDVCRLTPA
B5: Gamma-aminobutyric acid receptor-associated protein (Homo sapiens), O95166 (parent)
chain: B1 chain
partner: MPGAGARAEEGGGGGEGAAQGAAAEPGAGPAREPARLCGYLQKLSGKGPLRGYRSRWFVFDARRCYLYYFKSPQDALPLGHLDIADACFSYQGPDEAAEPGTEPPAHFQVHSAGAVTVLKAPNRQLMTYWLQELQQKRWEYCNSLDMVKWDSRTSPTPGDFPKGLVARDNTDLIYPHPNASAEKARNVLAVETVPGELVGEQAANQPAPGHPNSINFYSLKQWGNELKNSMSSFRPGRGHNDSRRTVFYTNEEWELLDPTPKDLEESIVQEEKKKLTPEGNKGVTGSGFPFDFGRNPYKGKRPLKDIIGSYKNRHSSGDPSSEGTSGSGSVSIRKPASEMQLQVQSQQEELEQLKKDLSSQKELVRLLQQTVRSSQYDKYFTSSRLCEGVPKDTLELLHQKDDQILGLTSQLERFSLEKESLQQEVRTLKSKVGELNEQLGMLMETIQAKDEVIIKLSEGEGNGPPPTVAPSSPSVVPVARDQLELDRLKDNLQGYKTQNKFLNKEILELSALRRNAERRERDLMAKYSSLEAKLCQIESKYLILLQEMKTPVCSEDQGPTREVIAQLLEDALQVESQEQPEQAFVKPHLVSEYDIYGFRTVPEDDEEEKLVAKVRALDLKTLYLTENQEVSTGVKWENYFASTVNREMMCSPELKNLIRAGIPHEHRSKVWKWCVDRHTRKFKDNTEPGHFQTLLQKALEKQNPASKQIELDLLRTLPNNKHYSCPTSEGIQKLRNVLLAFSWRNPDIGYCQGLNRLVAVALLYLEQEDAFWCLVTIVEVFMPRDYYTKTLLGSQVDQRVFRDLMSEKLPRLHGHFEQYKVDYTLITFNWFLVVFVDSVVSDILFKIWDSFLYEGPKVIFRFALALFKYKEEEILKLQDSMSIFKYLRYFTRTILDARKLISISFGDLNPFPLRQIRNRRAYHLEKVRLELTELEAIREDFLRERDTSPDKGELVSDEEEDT
B6: Gamma-aminobutyric acid receptor-associated protein (Homo sapiens), O95166 (parent)
chain: B1 chain
partner: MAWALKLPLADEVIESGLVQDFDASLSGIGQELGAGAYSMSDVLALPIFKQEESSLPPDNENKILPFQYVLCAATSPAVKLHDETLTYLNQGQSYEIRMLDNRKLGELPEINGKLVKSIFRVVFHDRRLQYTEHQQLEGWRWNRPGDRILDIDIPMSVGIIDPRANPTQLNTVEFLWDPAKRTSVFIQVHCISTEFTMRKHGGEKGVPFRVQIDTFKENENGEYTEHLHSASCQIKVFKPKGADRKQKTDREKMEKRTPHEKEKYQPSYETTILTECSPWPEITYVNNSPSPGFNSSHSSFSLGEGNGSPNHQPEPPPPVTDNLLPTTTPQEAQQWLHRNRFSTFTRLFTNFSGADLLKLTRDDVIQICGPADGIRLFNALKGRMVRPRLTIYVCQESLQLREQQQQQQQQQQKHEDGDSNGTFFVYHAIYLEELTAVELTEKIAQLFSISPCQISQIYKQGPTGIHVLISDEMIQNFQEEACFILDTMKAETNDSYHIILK

Variants of: B1
Details: with stbd1_human STBD1, O95210

| Variant | effect of a mutation on the interaction |
| --- | --- |
| Y49A;L50A | decreasing interaction |

Variants of: B2
Details: with stk3_human STK3, Q13188

| Variant | effect of a mutation on the interaction |
| --- | --- |
| Y49A;L50A | decreasing interaction |

Variants of: B3
Details: with stk4_human STK4, Q13043

| Variant | effect of a mutation on the interaction |
| --- | --- |
| R71A | increasing interaction |

Variants of: B4
Details: with tbc15_human TBC1D15, Q8TC07

| Variant | effect of a mutation on the interaction |
| --- | --- |
| Y49A;L50A | disrupting interaction |

Variants of: B5
Details: with tbd2b_human TBC1D2B

| Variant | effect of a mutation on the interaction |
| --- | --- |
| Y49A;L50A | decreasing interaction |

Variants of: B6
Details: with tfcp2_human TFCP2, Q12800

| Variant | effect of a mutation on the interaction |
| --- | --- |
| Y49A;L50A | decreasing interaction |
| R71A | increasing interaction |
